Assay results taken from the supplement of paper PMC10567573.

B1: PBXIP1 (parent)
chain: EKQKQPRWREGTKDSHDPLPSWAE
B2: BEX1 (parent)
chain: EENMERIGEEVRQLMEKLREKQLS

Variants of: B1
Assay: protein stability index of a GFP-peptide fusion (GPS, HEK-293T) (PSI 1-6); higher = more stable
Conditions: c terminus: a fixed tail appended
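Note: lentivirally expressed fusions sorted by FACS into six bins by GFP to DsRed ratio, PSI derived from sequencing read proportions per bin multiplied by bin number.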

Variant	protein stability index
EKQKQPRWMEGTKDSHDPLPSWAE [R9M]	2.35
EKQNQPRWREGTKDSHDPLPSWAE [K4N]	2.02
EKQKQPRWREGTKDSHDPDPSWAE [L19D]	1.99
EKQKQPRWREGTKDSHDPNPSWAE [L19N]	2.49
EKQKQPRWREGTKDSHDPCPSWAE [L19C]	1.51
EKQKQPRWREDTKDSHDPLPSWAE [G11D]	2.02
EKQKQPRWREQTKDSHDPLPSWAE [G11Q]	1.68
EKQKQPRWREGTKDSHDPLPSKAE [W22K]	5.42
EKQKQPRWREGTKDSHDPLPSYAE [W22Y]	4.85
EKQKQPRWREGTKDSHDPLPSIAE [W22I]	5.01
EKQKQYRWREGTKDSHDPLPSWAE [P6Y]	3.67
EKQKQCRWREGTKDSHDPLPSWAE [P6C]	1.48
KKQKQPRWREGTKDSHDPLPSWAE [E1K]	2.33
LKQKQPRWREGTKDSHDPLPSWAE [E1L]	2.19
PKQKQPRWREGTKDSHDPLPSWAE [E1P]	1.22
IKQKQPRWREGTKDSHDPLPSWAE [E1I]	2.16
EKQKQPRWREGTKDSHDTLPSWAE [P18T]	1.87
EKQKQPRWREGTKDSHDQLPSWAE [P18Q]	1.96
EKQKQPRWREGTKDSHDPLPSWAW [E24W]	1.95
EKQKQPRWREGTKDSHDPLPSWAT [E24T]	2.39

Variant	protein stability index
ERQKQPRWREGTKDSHDPLPSWAE [K2R]	2.02
EKQKQPRWREGTKDSHDPLMSWAE [P20M]	1.31
EKCKQPRWREGTKDSHDPLPSWAE [Q3C]	2.21
EKVKQPRWREGTKDSHDPLPSWAE [Q3V]	1.34
EKQKQPRWRCGTKDSHDPLPSWAE [E10C]	2.32
EKQKQPRWREGTKMSHDPLPSWAE [D14M]	1.96
EKQKQPRWREGTKDSHDPLPSWPE [A23P]	3.89
EKQKQPRWREGTKDSHDPLPSWSE [A23S]	2.01
EKQKQPPWREGTKDSHDPLPSWAE [R7P]	2.33
EKQKHPRWREGTKDSHDPLPSWAE [Q5H]	2.11
EKQKAPRWREGTKDSHDPLPSWAE [Q5A]	3.71
EKQKQPRWREGTKDTHDPLPSWAE [S15T]	1.96
EKQKQPRWREGTKDDHDPLPSWAE [S15D]	1.84
EKQKQPRWREGTKDEHDPLPSWAE [S15E]	1.37
EKQKQPRWREGTKDQHDPLPSWAE [S15Q]	1.8
EKQKQPRWREGTKDSHDPLPWWAE [S21W]	4.58
EKQKQPRWREGTKDSYDPLPSWAE [H16Y]	1.39
EKQKQPRWREGTKDSEDPLPSWAE [H16E]	3.06
EKQKQPRWREGTKDSMDPLPSWAE [H16M]	1.07
EKQKQPRWREGTCDSHDPLPSWAE [K13C]	1.28

Variants of: B2
Assay: as above
Conditions: c terminus: a fixed tail appended

Variant	protein stability index
EENMERIGESVRQLMEKLREKQLS [E10S]	4.31
EENMERIGETVRQLMEKLREKQLS [E10T]	3.96
EENMERIGERVRQLMEKLREKQLS [E10R]	2.79
EENMERIGEWVRQLMEKLREKQLS [E10W]	3.67
EENMERIGEYVRQLMEKLREKQLS [E10Y]	4.13
EENMERIGEEVRQLMEKLSEKQLS [R19S]	4.21
EENMERIGEEVRQLMEKLKEKQLS [R19K]	4.74
EENMERIGEEVRQLMEKLLEKQLS [R19L]	2.82
EENMERIGEEVRQLMEKLYEKQLS [R19Y]	3.92
EENMERIGEEVRQLMEKLHEKQLS [R19H]	5.32
EENMERIGEEVRQLMEKLPEKQLS [R19P]	5.54
EENMERIGEEVRQLMEKLEEKQLS [R19E]	5.31
EENMERIGEEVRQLMEKLTEKQLS [R19T]	4.76
EENMERIGEEVRQLMEKLAEKQLS [R19A]	4.72
EENMERIGEEVRQLMEKLNEKQLS [R19N]	5.13
EENMERIGEEVRQLMEKLFEKQLS [R19F]	3.95
EENMERIGEEVRQLMEILREKQLS [K17I]	3.76
EENMERIGEEVRQLMEDLREKQLS [K17D]	4.76
EENMERIGEEVRQLMEGLREKQLS [K17G]	4.86
EENMERIGEEVRQLMEWLREKQLS [K17W]	4.17
EENMERIGEEVRQLMEQLREKQLS [K17Q]	4.38
EENMERIGEEVRQLMEKLREHQLS [K21H]	3.15
EENMERIGEEVRQLMEKLREYQLS [K21Y]	3.04
EENMERIGEEVRQLMEKLRENQLS [K21N]	4.61
EENMERIGEEVRQLMEKLREIQLS [K21I]	3.7

Variant	protein stability index
EENMERIGEEVRQLMEKLREAQLS [K21A]	4.11
EENMERIGEEVRQLMEKLREDQLS [K21D]	4.97
EENMERIGEEVRQLMEKLRETQLS [K21T]	5.02
EENMERIGEEVRQLMEKLREWQLS [K21W]	4.07
EENMERIGEEVRQLMEKLREQQLS [K21Q]	4.53
EENMERIGEEVRQLMEKLRECQLS [K21C]	1.67
EENMERIGEEVRQLMEKLRESQLS [K21S]	4.25
EENMERIGEEVRQLMEKLREFQLS [K21F]	4.64
EENMERIGEEVRQLMEKLREEQLS [K21E]	3.26
EENMERIGEEVLQLMEKLREKQLS [R12L]	3.77
EENMERIGEEVVQLMEKLREKQLS [R12V]	5.27
EENMERIGEEVMQLMEKLREKQLS [R12M]	4.62
EENMERIGEEVCQLMEKLREKQLS [R12C]	4.43
EENMERIGEEVKQLMEKLREKQLS [R12K]	4.78
EENMERIGEEVNQLMEKLREKQLS [R12N]	4.1
EENMERIGEEVHQLMEKLREKQLS [R12H]	5.45
EENMERIGEEVPQLMEKLREKQLS [R12P]	5.1
EENMERIGEEVSQLMEKLREKQLS [R12S]	4.85
EENMERIGEEVIQLMEKLREKQLS [R12I]	4.22
EENMERIGEEVFQLMEKLREKQLS [R12F]	4.12
EENMERIGEEVRQCMEKLREKQLS [L14C]	4.33
EENMERIGEEVRQNMEKLREKQLS [L14N]	5.76
EENMERIGEEVRQMMEKLREKQLS [L14M]	3.38
EENMERIGEEVRQWMEKLREKQLS [L14W]	4.7
EENMERIGEEVRQYMEKLREKQLS [L14Y]	4.58

Variant	protein stability index
EENMERIGEEVRQHMEKLREKQLS [L14H]	5.03
EENMERIGEEVRQRMEKLREKQLS [L14R]	5.59
EENMERIGEEVRQIMEKLREKQLS [L14I]	4.06
EENMERIGEEVRQVMEKLREKQLS [L14V]	4.97
EENMERIGEEVRQQMEKLREKQLS [L14Q]	5.03
EENMERIGEEVRQLMPKLREKQLS [E16P]	2.69
EENMERIGEEVRQLMNKLREKQLS [E16N]	4.45
EENMERIGEEVRQLMCKLREKQLS [E16C]	3.87
EENMERIGEEVRQLMHKLREKQLS [E16H]	4.49
EENMERIGEEVRQLMWKLREKQLS [E16W]	2.85
EENMERIGEEVRQLMKKLREKQLS [E16K]	4.32
EENMERIGEEVRQLMVKLREKQLS [E16V]	3.31
EENMERIGEEVRQLMRKLREKQLS [E16R]	3.89
EENMERIGEEVRQLMEKLREKGLS [Q22G]	4.18
EENMERIGEEVRQLMEKLREKALS [Q22A]	2.82
EENMERIGEEVRQLMEKLREKNLS [Q22N]	5.16
EENMERIGEEVRQLMEKLREKWLS [Q22W]	2.28
EENMERIGEEVRQLMEKLREKMLS [Q22M]	1.08
EENMERIGEEVRQLMEKLREKDLS [Q22D]	4.73
EENMERIGEEVRQLMEKLREKSLS [Q22S]	3.92
EENMERIGEEVRQLMEKLREKPLS [Q22P]	3.67
EENMERIGEEVRQLMEKLREKTLS [Q22T]	3.59
EENMERIGEEVRQLMEKLREKCLS [Q22C]	2.46
EENMERIGEEVRQLMEKMREKQLS [L18M]	4.59
EENMERIGEEVRQLMEKTREKQLS [L18T]	5.53

Variant	protein stability index
EENMERIGEEVRQLMEKPREKQLS [L18P]	5.86
EENMERIGEEVRQLMEKCREKQLS [L18C]	3.82
EENMERIGEEVRQLMEKKREKQLS [L18K]	5.26
EENMERIGEEVRQLMEKHREKQLS [L18H]	5.04
EENMERIGEEVRQLMEKIREKQLS [L18I]	4.48
EENMERIGEEVRQLMEKWREKQLS [L18W]	4.84
EENMERIGEEVRQLMEKEREKQLS [L18E]	5.35
EENMERIGEEVRQLVEKLREKQLS [M15V]	3.78
EENMERIGEEVRQLWEKLREKQLS [M15W]	3.71
EENMERIGEEVRQLEEKLREKQLS [M15E]	4.89
EENMERIGEEVRQLFEKLREKQLS [M15F]	4.08
EENMERIGEEVRQLTEKLREKQLS [M15T]	5.18
EENMERIGEEVRQLLEKLREKQLS [M15L]	4.98
EENMERIGEEVRQLPEKLREKQLS [M15P]	5.5
EENMERIGEEVRQLYEKLREKQLS [M15Y]	4.89
EENMERIGEEVRQLNEKLREKQLS [M15N]	3.02
EENMERIGEEVRQLIEKLREKQLS [M15I]	4.87
EENMERIGEEVRQLAEKLREKQLS [M15A]	2.64
EENMERIGEEVRQLMEKLREKQLV [S24V]	4.67
EENMERIGEEVRQLMEKLREKQLY [S24Y]	3.91
EENMERIGEEVRQLMEKLREKQLW [S24W]	3.99
EENMERIGEEVRQLMEKLREKQLD [S24D]	4.91
EENMERIGEEVRQLMEKLREKQLT [S24T]	4.29
EENMERIGEEVRQLMEKLREKQLL [S24L]	4.21
EENMERIGEEVRQLMEKLREKQLC [S24C]	4.8

Variant	protein stability index
EENMERIGEEVRQLMEKLREKQLM [S24M]	4.43
EENMERIGEEVRQLMEKLREKQLK [S24K]	3.54
EENMERIGEEVRQLMEKLREKQLG [S24G]	4.78
EENMERIGEEVRQLMEKLREKQLF [S24F]	4.32
EENMERIGEEVRQLMEKLREKQLI [S24I]	3.97
EENMERIGEEVRQLMEKLREKQLQ [S24Q]	4.95
EENMERIGEEVRQLMEKLRRKQLS [E20R]	4.46
EENMERIGEEVRQLMEKLRSKQLS [E20S]	4.57
EENMERIGEEVRQLMEKLRFKQLS [E20F]	2.75
EENMERIGEEVRQLMEKLRLKQLS [E20L]	4.29
EENMERIGEEVRQLMEKLRWKQLS [E20W]	2.19
EENMERIGEEVRQLMEKLRHKQLS [E20H]	3.74
EENMERIGEEHRQLMEKLREKQLS [V11H]	5.86
EENMERIGEEGRQLMEKLREKQLS [V11G]	5.64
EENMERIGEEDRQLMEKLREKQLS [V11D]	5.92
EENMERIGEEPRQLMEKLREKQLS [V11P]	5.37
EENMERIGEECRQLMEKLREKQLS [V11C]	4.19
EENMERIGEENRQLMEKLREKQLS [V11N]	5.46
EENMERIGEETRQLMEKLREKQLS [V11T]	4.5
EENMERIGEELRQLMEKLREKQLS [V11L]	4.68
EENMERIGEEFRQLMEKLREKQLS [V11F]	4.25
EENMERIGEESRQLMEKLREKQLS [V11S]	3.41
EENMERIGEERRQLMEKLREKQLS [V11R]	5.38
EENMERIGEEKRQLMEKLREKQLS [V11K]	5.09
EENMERIGEEMRQLMEKLREKQLS [V11M]	4.63

Variant	protein stability index
EENMERIGEEVRQLMEKLREKQIS [L23I]	5.26
EENMERIGEEVRQLMEKLREKQMS [L23M]	4.1
EENMERIGEEVRQLMEKLREKQVS [L23V]	3.88
EENMERIGEEVRQLMEKLREKQDS [L23D]	5.21
EENMERIGEEVRQLMEKLREKQHS [L23H]	4.65
EENMERIGEEVRQLMEKLREKQSS [L23S]	3.89
EENMERIGEEVRQLMEKLREKQAS [L23A]	4.63
EENMERIGEEVRQLMEKLREKQFS [L23F]	4.58
EENMERIGEEVRQLMEKLREKQCS [L23C]	4.73
EENMERIGEEVRQLMEKLREKQWS [L23W]	4.68
EENMERIGEEVRQLMEKLREKQES [L23E]	4.46
EENMERIGEEVRQLMEKLREKQQS [L23Q]	4.97
EENMERIGEEVRQLMEKLREKQYS [L23Y]	5.23
EENMERIGEEVRQLMEKLREKQTS [L23T]	5.19
EENMERIGEEVRELMEKLREKQLS [Q13E]	5.38
EENMERIGEEVRPLMEKLREKQLS [Q13P]	4.79
EENMERIGEEVRGLMEKLREKQLS [Q13G]	5.2
EENMERIGEEVRWLMEKLREKQLS [Q13W]	3.37
EENMERIGEEVRMLMEKLREKQLS [Q13M]	4.5
EENMERIGEEVRCLMEKLREKQLS [Q13C]	4.53
EENMERIGEEVRHLMEKLREKQLS [Q13H]	4.04
EENMERIGEEVRILMEKLREKQLS [Q13I]	4.23
EENMERIGEEVRTLMEKLREKQLS [Q13T]	3.45
